Experimental data reported in a protein production outcome set (Wang et al. 2014).

Experiment: label from the status in PepcDB records

Row | Sequence | protein production
1 | MLEKLLSAIKQKVSNYFLGVLPKSYSMSEENNILGLYDEHFLLTKNENLVGILRLEGVSYTHLSTEQLQDLFTERQMALDSLEKVVARLVVKRRKIDHQQNIQSDSQYLQAILNQFENKEVYENQYFLVLESTHSLHGVLEHKKKSLMHANRENFKDILSYKAHFLQETLKSLEIQLKNYAPKLLSSKEVLNFYAEYINGFDLPLKPLVGGYLSDSYIASSITFEKDYFIQESFNQKTYNRLIGIKAYESERITSIAIGALLYQETPLDIIFSIEPMSVHKTLSFLKERAKFSMSNLVKNELLEYQELVKTKRLSMQKFALNILIKAPSLENLDAQTSLVLGLLFKENLVGVIETFGLKGGYFSFFPERIHLNHRLRFLTSKALACLMVFERQNLGFKANSWGNSPLSVFKNLDYSPFLFNFHNQEVSHKNAKEIARVNGHTLIIGATGSGKSTLISFLMMSALKYQNMRLLAFDRMQGLYSFTKFFKGHYHDGQSFSINPFCLEPNLQNLEFLQSFFLSMFDLAPSRDKEALEDMNAISSAIKSLYETLYPKAFSLLDFKETLKRTSSNQLGLSLEPYLNNPLFNALNDAFNSNAFLNVINLDTITQNPKDLGLLAYYLFYKILEESRKNDSGFLVFLDEFKSYVENDLLNTKINALITQARKANGVVVLALQDIYQLSGVKNAHSFLSNMGTLILYPQKNARELKHNFNVPLSETEISFLENTPLYARQVLVKNLGNGSSNMIDVSLESLGRYLKIFNSDSSHVSKVKALQKDYPTEWREKLLRSLEHHHHHH | failed
2 | MLEKNKPENHATDKHGLLSAPIPETLRKMTVPMTMGMIAILMFNLVDTFFISLLGTHALAAISYTFPVTFAVNCITMGIGMGLSTNIGRLLGQGHAPQAARFTTHGLLLAVLLVAIASSIGFATIAPLFRFLGATDDLIPLIEQYMQVWYLTIPLLVIPMAGNSAIRATGDTKTPAKIMMLAGLINGMLDPLLIFGYGPFPELGIQGAAIASAFSWLGALCGSFYVLVKREKLLAQPQWASLKQDWQQTLKIGTPAALSNAMNPLSGAILMMLLSSHGTAAVAAYGAAQRIESILILVLMSLTSALTPFMAQNLGAKNPQRAFSGLFLSMRFAVVFQGFIFLMMVPLSIPLAALFSQEETVKNLLWHYLLVVPFSYGFQGIVMMLVSGLNAMHKPLRAFQWSFMRLFVFTLPAAWVGSQVYSIEGLFIGIALGNTLGGLLGYMFALRERKLTLIEQNSAS | failed
3 | MLELFLKSFLTLFVVMDPVGLVPVFVALAGDRPHRTQVLIARKAVLVAGGLLTFFYFFGRELLGHLGISLEALRIAGGVLLFRIATEMVFAHHERETEEERDEALSRADISVFPLAIPLIAGPGALASVLVLGAEAKGVPYGFAVVLFTAYLVLFLAYLFLRGATAVRRALGRTGVNVVTRVLGLLLAALAVQYVADGVRGLL | failed
4 | MLETLMYGAISALVFGTVLPLLYRSKNIRKASSGLSLLSSILLLGFAGIILYTRTEPVFPVTGFLPGAGFTLSADRLAAGFILLIGAVVPGVSIYSVEYVEHAKSEARKSLQASLTNLFILAMLMVILAGNMVSFLVFWEIMSLSSLLLVLHDYSSEENKKAGFFYFVMTNISTAFLFVGFISLFRLTGSADFGPLEYPAADLALPFIFLFIGFGVKAGLVPFHKWLPYAHPAAPSSVSALMSGVMLKVAVYGFLRFLLSVSAPELWWGVLILTAGSISALFGVIYALKENDIKRMLAYSSIENIGIIFTGIGLYAVFKVEGLESLALLSLVGACFHAFNHAVFKSLLFLCAGSVVHATGTRKIEAFGGLVKSMPVTSALFLIGSVSIAAMPPTNGFAGELLLYQAFFQSFAVTDPLLNIFLIIALSSFALTGALAAALFVKLFGITCLAIPRSEKSRLAEEVQKPMLVGPAVPAAFCILGGLFSKQLLSLAGWKIDFPDLLLLGILLGLIYTALFVIIRSKETGPARISETWGCGIPALAPYMEYSSAGFSEPLVMIFKSIYRTKIVNRPEYFDEKESLFKNGKVEIRLLRFFEEYLYIPPARAIDIFSKYVSKLQNGKLDSYVLYAFLAVIVLIIATGGFV | failed
5 | MLEVHRTHRAKILNYSQVEDSLNRHGWSASKLWNVANYHSRQVWEETREIPGHEELKNELKGHDKYKGLHSQSSQRVLEELAEAFNSWYSSDDERDNPPGYRKQNYYDQQGRRVHEEHPLSTVTWKQNGIRHDTKNNRVRLSKGANHKEHPKAWEYILVEYETRPGVEVENLQQVRAVYDQTKERWELHLVCKEEIETPDAPGTETAGIDLGISNFAAVAYSTEDADLYPGNRLKQDGYYFPKEIANCDDSSGDRATRLHHKWSERRTHFFHSLAKHIVEKCIERSVGRINVGDLEGIREDENAKSKNWGRHGNLDLHGWAFDRFTSILEYKAKVEGIEVMEVSERDTSKTCCVCGREDDSQRVERGLYVCESCDAAFNADVNGAENIRLDIDEESNSESTGQLSGDRSTGWLAQPGVYLYDLSCGFQPQREVVDSKP | failed
6 | MLFSIQTCPCQINPALNAVSTPLLYQDCCQPYHDGLYNQEVEDSDAIRADTAEHLMRTRYSAFVLVKPEYIVKTTLPAQQDLLDIKAIENWAKETDWAGLEVVAHTPKLSKRHAQVEFKAYFKTPDGLQAHHELSTFVKIKNKANSDASWYFLDPTVSMSVTQKQPCICGSGEKFKRCCGMYI | not failed
7 | MLFSIRNFNQGVIMAGWFELSKSSDNQFRFVLKAGNGETILTSELYTSKASAEKGIASVRSNSPQEERYEKKTASNGKFYFNLKAANHQIIGSSQMYATAQSRETGIASVKANGTSQTVKDNT | failed
8 | MLFSLKYLGMTLVEQPKGEELSAAAIKRIVATAKASGKKLQKVTLKVSPRGIILTDNLTNQLIENVSIYRISYCTADKMHDKVFAYIAQSQHNQSLECHAFLCTKRKMAQAVTLTVAQAFKVAFEFWQVSKEEKEKRDKASQEGGDVLGARQDCTPPLKSLVATGNLLDLEETAKAPLSTVSANTTNMDEVPRPQALSGSSVVWELDDGLDEAFSRLAQSRTNPQVLDTGLTAQDMHYAQCLSPVDWDKPDSSGTEQDDLFSF | failed
9 | MLFTPEGTPMARRLEDARILMYSHDTFGLGHLRRCRAIAHALVEDYRGLNILIISGATIAGAFDYRARVDFVKIPSVIKLRNGEYTSLASHIDLHETLKMRESSIRHTAETFQPDIFIVDKEPMGLKGEVEDTLAYLKARGTVLVLGLREIMDAPHLLDAEWKRNGIMQKIDQYYDSVWVYGPPDFYDPLIGLDVPVSLRRKMDFVGFLQRSVSKGKTSIHARKDNYLLVTTGGGGDGSDLVHDVMNAYEADPTLTQKALVVLGPYMPAAERAKLVQKGEAIPYIEVIEFDNHMEELIDGATGVVAMGGYNTYCEILSFDKPALIVPRVKPREEQLLRAKRASELGLVDMLLPEQSVDPAIMAAALKRLPSRLPPSKSGSNMHLEGLDHISQTVGRWLDGRATHLAVVGAE | failed
10 | MLFWGSAFNAMSYVIQYMPPLSAAAERFTIASLGLFILFAAIGKLRWAALRQNLAIYLIIGIIGIAGFNLGCFYGLQTTSAVNGALIMATTPLITLLLTILLDGEKLTLNKSIGVVFGLSGVLFVISHGHISTLLHLKIAIGDLFILLGGVSFCLANMLSRRYVKNATPLETTTFSMMSGALTLIILSVIFEHPSQAIAMAPITAHLAMGYVIICSTMIAYLFWFNGIQKLGAGRASIFFNFVPVFSMLVALLAGQSLNIWQLIGTALVMLGVMSSGGFIQIKRPTLIAKPCTK | failed
11 | MLGAVARGGWVYEVHAAGAGTDLYRVSLLEGYQEQRPLSAAESAALPALLPLVHAESALSEMGYFHGVMGSTADTALAYDRFVGHTRWFGGEDGTRLLNRIRTRLQRPGPVRFWNGSSPPTGEDRRAALVP | failed
12 | MLGFKDIPLTKKVIHIINDIERPFMIRWSNSHDVQQIHDWLQEEEALEVHGNFLCNWNLTRQCHEEGRLLVLIDEIKGIPVAYQWGQLLSSGILQVRNGWRGNGLGRLVVEHCVELALQQDEMVLQVECKPSSSIPFWEAMGFTIVEGEFGKNAKGFRVLSKNLALPPGGRPILATISSFPEERNWQDNVPAIASYHLNAIVADDGKVYLAERASFPKCFRRMSRDPVIEIIVEGKLVYRDKAKYQGAQDHGVKWCRNGFYIDVVTI | failed
13 | MLGHNKISVIIPAYNEERRIGNVLKGIPDFVDEVIVVDDGSSDGTSKVAMELGATVIRLNKNSGKGAAMREGLKISTGDIIVFMDADGQHNPKEIYRLVKPIVEGRADLVIGRRIITRGKRPMSRKISNFITTRLITLKTRKKILDTQSGFRAIRREFVPVIESDRYEVETEVLIKAIKKGARILEVPISTRYDVETGHFKMIDIFRFLFALIKYLEHHHHHH | failed
14 | MLHFAHIFQNKVHTMNITKPFPLPTGYFGIPLGLAALSLAWFHLENLFPAARMVSDVLGIVASAVWILFILMYAYKLRYYFEEVRAEYHSPVRFSFIALIPITTMLVGDILYRWNPLIAEVLIWIGTIGQLLFSTLRVSELWQGGVFEQKSTHPSFYLPAVAANFTSASSLALLGYHDLGYLFFGAGMIAWIIFEPVLLQHLRISSLEPQFRATMGIVLAPAFVCVSAYLSINHGEVDTLAKILWGYGFLQLFFLLRLFPWIVEKGLNIGLWAFSFGLASMANSATAFYHGNVLQGVSIFAFVFSNVMIGLLVLMTIYKLTKGQFFLK | not failed
15 | MLHGLKQRLEALHHPGELEGSPQNLHQLLGVSIEQSVPQAQTMLVERHLASLTGDEARLLAALSDGSAFALLTLYSGSRFSRGEVLYRYSNAGRAAGIQCNDFIALYLNHLFAQGLVIASDFTESLRTDYELCEGDSDFRKAQAELQIHLPKLSIRRETLRISPLGRQLWTLMTTPADIEE | not failed
16 | MLHIDDAMIEDAVTPQAAQEVLHAAFLDFGRGSAAMQRRVRTEAGGVKLSTLGAVIPGQGVAGAKVYTTIKGQFQFVILLFSAADGRPLATCDAGTLTRKRTAACTVLAAGALARLRSSVLGLFGAGTQGVEHAAQLSARFALEAILVHDPHASPEVVERIGRRCGVPARMAAPADIAAQADIVVTATRSATPLFAGQALRAGAFVGAIGSSLPHTRELDDEVLRRARAVVVEWREQTLSEAGDLVLAAPDTGLDAKVVELADVLAGRATARQADEDIVIYKSVGVGLEDVALAGYAYRRLAAQRGWPAP | failed
17 | MLIDIALATYNGEKYIQEMLNSISNQTYQDFMIHLRDDGSTDNTLTLCENHKLYEQGKLKIYKDNIKGLGASKNFLKILGHCNSEYIFLCDQDDFWMKDKIQKMLDHIQKHEYKNNIKVPTLVFSDLQIVDRSLNIIADSFYRNSIKSSMCSSPFDFLLSNHIPGCAMVVNKSLLESIQPLPENFRMHDWWLAFVASFYGKIAYLDEPLIKYRQHGGNTVGVPGMNINILRQIKSILNFRDLLDKGLLHKKKMEIYIDKTCSNKILSYESNRFYDFLKGNMPFLEKNKIFKQIKFGEPLILSYLVWLFL | failed
18 | MLIENAVDFIENANIGIHTVSPEGIIKYANEHELTVLGYTEDEYVGHHVSEFQFDKSCLEQMMIKLAKFESFSNFPAMVCGKLKMKYILYNSSVYAEDGEFVHTRCFGNEISKSVYQACKVDYKKSLTNRVD | failed
19 | MLIKKIDLHKDPIRKLFFYYFIPLAFSMISLSTYSMIDGMFVGKKLGKEAIAAVNIAWPIFPGLIAYELLFGFGAASIVGYFLGQNKTHRARLVFSSVFYFVAISAFILSMALLPFSETIARFFGSNDALLSMSKRYIEIILMGAVFMVLHPLADVFVVNDKRPILAMVAMLIGSLANIFFNYLFIFVLKVGVQGSAIATVIGHAIGVLVLMQHFWRKKGQLYFIKRFSLSSVISSAKSGVPQSTAEFSASVMILLFNTAIMHTAGERFVSMYGIVMYNAIIFFTTLFAISQGIQPIASFSYGARNLERVKEVFVFGLKAAFCIGIVFYGAYYFLDEFLIKLYLQPSEQDPLFMQETKRAMNIYYVGYIFLGMTLLCAVFFQSIQRTKSSFIITLSHTLGFIVILLPILSHFYGINGVWVTYPIAQFLAFLVALGVTYYEIKKGVFTTYKEKNPIALKT | failed
